Results on six proteins are retold here after US20020150885.

The target in data set [1] is T1, N-Ac-LEVD-N′-ethoxycarbonyl R110 SEQ ID NO:9.
T1 chain: LEVD

In data set [2] the target is T2, N-(Z-DEVD)-N′-acetyl-Rhodamine 110 SEQ ID NO:5.
T2 chain: DEVD

Data set [3] has as its target T3, N-(Z-VD)-N′-acetyl-Rhodamine 110.
T3 chain: VD

Data set [4] has as its target T4, N-Ac-DEVD-N′-ethoxycarbonyl-R110 SEQ ID NO:5.
T4 chain: DEVD

Data set [5] has as its target T5, N-Ac-DEVD-N′-octyloxycarbonyl-R110 SEQ ID NO:5.
T5 chain: DEVD

Data set [6] concerns the target T6, N-Ac-DEVD-N′-hexyloxycarbonyl-R110 SEQ ID NO:5.
T6 chain: DEVD

Data set [7] addresses T7, N-Z-VD-N′-ethoxycarbonyl-R110.
T7 chain: VD

Data set [8] addresses T8, N-Z-EVD-N′-ethoxycarbonyl-R110.
T8 chain: EVD

Data set [9] concerns the target T9, N-Ac-DEVD-N′-(ethylthio)carbonyl-R110 SEQ ID NO:5.
T9 chain: DEVD

Data set [10] addresses T10, N-Z-DEVD-N′-ethoxycarbonyl-R110 SEQ ID NO:5.
T10 chain: DEVD

In data set [11] the target is T11, N-(Z-VAD)-N′-acetyl-Rhodamine 110.
T11 chain: VAD

For the next data set, the target named is T12, (Z-VAD)2-Rhodamine 110.
T12 chain: VAD

Data set [12] deals with T13, (Z-YVAD)2-Rhodamine 110 SEQ ID NO:2.
T13 chain: YVAD

For data set [13], the target named is T14, N-(Z-YVAD)-N′-acetyl-Rhodamine 110 SEQ ID NO:2.
T14 chain: YVAD

B1: recombinant human caspase-6 (protein)
chain: AFYKREMFDPAEKYKMDHRRRGIALIFNHERFFWHLTLPERRGTCADRDNLTRRFSDLGFEVKCFNDLKAEELLLKIHEVSTVSHADADCFVCVFLSHGEGNHIYAYDAKIEIQTLTGLFKGDKCHSLVGKPKIFIIQACRGNQHDVPVIPLDVVDNQTEKLDTNITEVDAASVYTLPAGADFLMCYSVAEGYYSHRETVNGSWYIQDLCEMLGKYGSSLEFTELLTLVNRKVSQRRVDFCKDPSAIGKKQVPCFASMLTKKLHFFPKSN
With B1, the “signal to background ratio (fluorescence of cleaved substrate)” value in [1] was “signal to background ratios of about 13 for caspase-6 to about 26 for caspase-8”.

B2: Recombinant CPP32 protein (protein)
chain: SGISLDNSYKMDYPEMGLCIIINNKNFHKSTGMTSRSGTDVDAANLRETFRNLKYEVRNKNDLTREEIVELMRDVSKEDHSKRSSFVCVLLSHGEEGIIFGTNGPVDLKKITNFFRGDRCRSLTGKPKLFIIQACRGTELDCGIETDSGVDDDMACHKIPVEADFLYAYSTAPGYYSWRNSKDGSWFIQSLCAMLKQYADKLEFMHILTRVNRKVATEFESFSFDATFHAKKQIPCIVSMLTKELYFYH
On to B2, for which, in data set [2], the Km came out at 154 µM and the Vmax came out at 160 nmol/min. In data set [3], the Km came out at 60 µM.

B3: recombinant human caspase-3 (protein)
chain: SGISLDNSYKMDYPEMGLCIIINNKNFHKSTGMTSRSGTDVDAANLRETFRNLKYEVRNKNDLTREEIVELMRDVSKEDHSKRSSFVCVLLSHGEEGIIFGTNGPVDLKKITNFFRGDRCRSLTGKPKLFIIQACRGTELDCGIETDSGVDDDMACHKIPVEADFLYAYSTAPGYYSWRNSKDGSWFIQSLCAMLKQYADKLEFMHILTRVNRKVATEFESFSFDATFHAKKQIPCIVSMLTKELYFYH
As for B3, the “Cleavage by Caspase-3” value in data set [4] is listed as “Good”; in data set [5], “Good”; in data set [6], “Good”; in data set [7], “Poor”; in data set [8], “Fair”; in data set [9] it was “Good”. Moreover, in data set [10], the “Cleavage by Caspase-3” value is given as “Good”. The “amount of enzyme needed for cleavage, against tri- and tetrapeptide substrates” value in data set [7] is “a 50-fold greater amount of enzyme than needed for tri- and tetrapeptide substrates”. Besides, the “signal above the enzyme blank value (fluorescence of cleaved substrate)” value in data set [1] was “a signal that was about 5-fold above the enzyme blank value”.

B4: recombinant human caspase-8 (protein)
chain: SESQTLDKVYQMKSKPRGYCLIINNHNFAKAREKVPKLHSIRDRNGTHLDAGALTTTFEELHFEIKPHDDCTVEQIYEILKIYQLMDHSNMDCFICCILSHGDKGIIYGTDGQEAPIYELTSQFTGLKCPSLAGKPKVFFIQACQGDNYQKGIPVETDSEEQPYLEMDLSSPQTRYIPDEADFLLGMATVNNCVSYRNPAEGTWYIQSLCQSLRERCPRGDDILTILTEVNYEVSNKDDKKNMGKQMPQPTFTLRKKLVFPSD
On to B4, for which, in data set [1], the “signal to background ratio (fluorescence of cleaved substrate)” value is “signal to background ratios of about 13 for caspase-6 to about 26 for caspase-8”.

B5: Recombinant ICE protein (protein)
chain: NPAMPTSSGSEGNVKLCSLEEAQRIWKQKSAEIYPIMDKSSRTRLALIICNEEFDSIPRRTGAEVDITGMTMLLQNLGYSVDVKKNLTASDMTTELEAFAHRPEHKTSDSTFLVFMSHGIREGICGKKHSEQVPDILQLNAIFNMLNTKNCPSLKDKPKVIIIQACRGDSPGVVWFKDSVGVSGNLSLPTTEEFEDDAIKKAHIEKDFIAFCSSTPDNVSWRHPTMGSVFIGRLIEHMQEYACSCDVEEIFRKVRFSFEQPDGRAQMPTTERVTLTRCFYLFPGH
Regarding B5, the Km in data set [2] turned out to be 12 µM; in data set [11], 70 µM; with (Z-VAD)2-Rhodamine 110 it was 21 µM; in [12] it was 6 µM; in data set [13], 32 µM. In addition, the Vmax in data set [2] was determined as 9 nmol/min; in data set [11], 4 nmol/min; in the data set with (Z-VAD)2-Rhodamine 110, 9 nmol/min; in [12], 14 nmol/min; in [13] it was 96 nmol/min.

B6: recombinant human caspase-7 (protein)
chain: AKPDRSSFVPSLFSKKKKNVTMRSIKTTRDRVPTYQYNMNFEKLGKCIIINNKNFDKVTGMGVRNGTDKDAEALFKCFRSLGFDVIVYNDCSCAKMQDLLKKASEEDHTNAACFACILLSHGEENVIYGKDGVTPIKDLTAHFRGDRCKTLLEKPKLFFIQACRGTELDDGIQADSGPINDTDANPRYKIPVEADFLFAYSTVPGYYSWRSPGRGSWFVQALCSILEEHGKDLEIMQILTRVNDRVARHFESQSDDPHFHEKKQIPCVVSMLTKELYFSQ
In the case of B6, the “fluorescent signal of cleaved substrate” value in data set [1] is on record as “Caspase-7 gave virtually no signal”.

One may read the Km as the substrate concentration at which the rate is half of its maximum. By Vmax is commonly meant the rate approached at saturating substrate.
